We go through 16 molecules from US20100004431A1 (Xencor, published 2010).

Read-outs that look alike come from different tables or passages of the source. Some results are limits rather than exact numbers.

The target of assay [1] is T1, CD25 (R&D systems cat. #223-2A/CF) (UniProt P01589 22-213, limits assumed).
T1 construct: Bought soluble protein
T1 sequence (looked up): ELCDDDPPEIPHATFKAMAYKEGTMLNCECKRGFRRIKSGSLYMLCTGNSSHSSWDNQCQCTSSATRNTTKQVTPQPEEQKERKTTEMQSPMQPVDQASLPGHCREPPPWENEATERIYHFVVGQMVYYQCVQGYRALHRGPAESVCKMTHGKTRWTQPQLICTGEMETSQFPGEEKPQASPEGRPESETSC
Kind of assay: SPR (Biacore). A general note: Surface plasmon resonance follows binding to a sensor surface in real time, without labels.
Protocol: (§1) Binding was measured by injection of two-fold serial dilutions of CD25 (0 nM to 50 nM; R&D systems) in buffer at 25° C. with a flow rate of 25-30 μL/min for 2 min followed by a dissociation phase of 4-5 min. Association rates (kₒₙ) and dissociation rates (koff) were calculated using a simple one-to-one Langmuir binding model (BIAcore Evaluation Software version 3.2). The equilibrium dissociation constant (Kd) was calculated as the ratio of koff/kₒₙ).

Assay [2] deals with T1, CD25 (R&D systems cat. #223-2A/CF). Kind of assay: Biacore (SPR); antibody captured on Protein A, CD25 injected.
Protocol: as §1
For assay [3] the target is unchanged. The assay is described as above. This is another data set of the same source.
Protocol: as §1
For the next assay, the target named is VEGF (UniProt P15692-4 27-191, limits assumed). Kind of assay: Biacore (SPR); Fab injected over immobilized VEGF.
Assay [4] addresses T2, TNFα (UniProt P01375 77-233). As to the kind of experiment: SPR (Biacore), TNFα on CM5 chip, Fab injected; mean of two runs ± SD.
Protocol: (§2) For kinetic analysis of anti-TNFα antibodies, TNFα was coupled to an activated CM5 biosensor chip using standard NHS-EDC chemistry by injecting 200 nM TNFα at a flow rate of 2 μL/min for 10 min. […] For subsequent cycles, the chip was regenerated using pH4.0 acetate buffer. Association rates (kₒₙ) and dissociation rates (koff) were calculated using a simple one-to-one Langmuir binding model (BIAcore Evaluation Software version 3.2). The equilibrium dissociation constant (Kd) was calculated as the ratio of koff/kₒₙ.
Assay [5] addresses T2, TNFα. Kind of assay: SPR (Biacore), TNFα on CM5 chip, Fab injected.
Protocol: as §2

T2 sequence (P01375 77-233 limits assumed): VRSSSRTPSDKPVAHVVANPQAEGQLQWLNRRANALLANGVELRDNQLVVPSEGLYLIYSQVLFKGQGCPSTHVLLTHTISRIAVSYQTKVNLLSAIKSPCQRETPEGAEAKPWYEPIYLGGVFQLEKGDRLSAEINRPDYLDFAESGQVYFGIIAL
Chain of VEGF (P15692 other isoform, or with tags, fused parts or gaps limits assumed): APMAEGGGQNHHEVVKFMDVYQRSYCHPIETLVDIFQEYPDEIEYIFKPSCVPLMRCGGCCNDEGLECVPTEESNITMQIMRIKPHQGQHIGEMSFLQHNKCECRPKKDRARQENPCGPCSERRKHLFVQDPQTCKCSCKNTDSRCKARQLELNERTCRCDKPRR
Protocol for VEGF: For kinetic analysis of anti-VEGF antibodies, VEGF was coupled to an activated CM5 biosensor chip using standard NHS-EDC chemistry by injecting 200 nM VEGF at a flow rate of 2 μL/min for 10 min. […] Association rates (kₒₙ) and dissociation rates (koff) were calculated using a simple one-to-one Langmuir binding model (BIAcore Evaluation Software version 3.2). The equilibrium dissociation constant (Kd) was calculated as the ratio of koff/kₒₙ.

B1: anti-CD25 H1.12L1 (antibody, IgG1, V domains shown)
VH: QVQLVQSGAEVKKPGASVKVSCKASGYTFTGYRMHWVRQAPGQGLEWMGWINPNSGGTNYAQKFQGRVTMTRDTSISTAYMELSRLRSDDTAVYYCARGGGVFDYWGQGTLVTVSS
VL: QIVLTQSPATLSLSPGERATLSCRASSSISYMHWFQQKPGQSPQLLIYTTSNLASGVPARFSGSGSGTDYTLTISSLQPEDFAVYYCHQRSTYPLTFGSGTKLEIK
notes: IgG1 format
In the case of B1, the “fold tighter binding than anti-CD25 H1L1” value in assay [1] was determined as 8 fold. In assay [2], the “Fold change in Kd vs. H0L0” value worked out at 2.3 fold; binding was put at a Kd of 0.11 nM; the koff (commonly a measure of how fast the partners let go of each other) was 0.00012 s⁻¹; the kon (as a rule, the second-order rate constant of association) was found to be 1.1e+06 M⁻¹ s⁻¹.

B2: anti-CD25 H1L1.14 (antibody, V domains shown)
VH: QVQLVQSGAEVKKPGASVKVSCKASGYTFTSYRMHWVRQAPGQGLEWMGYINPSTGYTEYNQKFQGRVTITADKSISTAYMELSRLRSDDTAVYYCARGGGVFDYWGQGTLVTVSS
VL: QIVLTQSPATLSLSPGERATLSCRASSSISYMHWFQQKPGQSPQLLIYTTSNLASGVPARFSGSGSGTDFTLTISSLQPEDFAVYYCHQRSTYPLTFGSGTKLEIK
notes: Single variant in the anti-CD25 H1L1 background; also called VL Y71F single variant
For B2, in assay [3], the “Fold change in Kd vs. H1L1” value is 1.2 fold; the Kd (as a rule, a measure of binding affinity in units of concentration) is 0.27 nM; the koff came to 0.00048 s⁻¹; the kon was 1.8e+06 M⁻¹ s⁻¹.

B3: anti-CD25 H1L1.7 (antibody, V domains shown)
VH: QVQLVQSGAEVKKPGASVKVSCKASGYTFTSYRMHWVRQAPGQGLEWMGYINPSTGYTEYNQKFQGRVTITADKSISTAYMELSRLRSDDTAVYYCARGGGVFDYWGQGTLVTVSS
VL: QIVLTQSPATLSLSPGERATLSCRASSSISYMHWFQQKPGQSPQLLIYTTSNLASGVPARFSGSGSGTDYTLTISSLEPEDFAVYYCHQRSTYPLTFGSGTKLEIK
notes: Single variant in the anti-CD25 H1L1 background; also called VL Q79E single variant
As to B3, in assay [3], the “Fold change in Kd vs. H1L1” value is 1.2 fold, the Kd was 0.28 nM, the koff was determined as 0.00054 s⁻¹ and the kon was 2e+06 M⁻¹ s⁻¹.

B4: anti-CD25 H1L1.9 (antibody, V domains shown)
VH: QVQLVQSGAEVKKPGASVKVSCKASGYTFTSYRMHWVRQAPGQGLEWMGYINPSTGYTEYNQKFQGRVTITADKSISTAYMELSRLRSDDTAVYYCARGGGVFDYWGQGTLVTVSS
VL: QIVLTQSPATLSLSPGERATLSCRASSSISYMHWFQQKPGQAPQLLIYTTSNLASGVPARFSGSGSGTDYTLTISSLQPEDFAVYYCHQRSTYPLTFGSGTKLEIK
notes: Single variant in the anti-CD25 H1L1 background; also called VL S43A single variant
B4: in assay [3], the “Fold change in Kd vs. H1L1” value was 1 fold, the dissociation constant Kd came to 0.31 nM, the koff worked out at 0.00058 s⁻¹ and the kon stood at 1.9e+06 M⁻¹ s⁻¹.

B5: anti-CD25 H1L1.13 (antibody, V domains shown)
VH: QVQLVQSGAEVKKPGASVKVSCKASGYTFTSYRMHWVRQAPGQGLEWMGYINPSTGYTEYNQKFQGRVTITADKSISTAYMELSRLRSDDTAVYYCARGGGVFDYWGQGTLVTVSS
VL: QIVLTQSPATLSLSPGERATLSCRASSSISYMHWFQQKPGQSPQLLIYTTSNLASGIPARFSGSGSGTDYTLTISSLQPEDFAVYYCHQRSTYPLTFGSGTKLEIK
notes: Single variant in the anti-CD25 H1L1 background; also called VL V58I single variant
Consider B5, for which, in assay [3], the “Fold change in Kd vs. H1L1” value is -1.1 fold, the Kd was 0.35 nM, the koff was determined as 0.0006 s⁻¹ and the kon is 1.7e+06 M⁻¹ s⁻¹.

B6: anti-CD25 H1L1.16 (antibody, V domains shown)
VH: QVQLVQSGAEVKKPGASVKVSCKASGYTFTSYRMHWVRQAPGQGLEWMGYINPSTGYTEYNQKFQGRVTITADKSISTAYMELSRLRSDDTAVYYCARGGGVFDYWGQGTLVTVSS
VL: QIVLTQSPATLSLSPGERATLSCRASSSISYMHWYQQKPGQSPQLLIYTTSNLASGVPARFSGSGSGTDYTLTISSLQPEDFAVYYCHQRSTYPLTFGSGTKLEIK
notes: Single variant in the anti-CD25 H1L1 background; also called VL F36Y single variant
In the case of B6, in assay [3], the “Fold change in Kd vs. H1L1” value was 1.2 fold; the affinity, expressed as Kd, was 0.26 nM; the koff amounted to 0.00042 s⁻¹; the kon stood at 1.6e+06 M⁻¹ s⁻¹.

B7: anti-CD25 H1.14L1 (antibody, IgG1, V domains shown)
VH: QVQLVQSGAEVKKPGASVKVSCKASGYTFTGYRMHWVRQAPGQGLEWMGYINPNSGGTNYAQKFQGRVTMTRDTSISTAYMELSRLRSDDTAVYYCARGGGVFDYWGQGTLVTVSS
VL: QIVLTQSPATLSLSPGERATLSCRASSSISYMHWFQQKPGQSPQLLIYTTSNLASGVPARFSGSGSGTDYTLTISSLQPEDFAVYYCHQRSTYPLTFGSGTKLEIK
notes: IgG1 format
For the molecule B7, the “fold tighter binding than anti-CD25 H1L1” value in assay [1] amounted to 2.4 fold. In addition, in assay [2], the “Fold change in Kd vs. H0L0” value is -1.4 fold, binding was characterised by a dissociation constant (Kd) of 0.36 nM, the koff was 0.00028 s⁻¹ and the kon came to 770000 M⁻¹ s⁻¹.

B8: anti-CD25 H1.23L1 (antibody, IgG1, V domains shown)
VH: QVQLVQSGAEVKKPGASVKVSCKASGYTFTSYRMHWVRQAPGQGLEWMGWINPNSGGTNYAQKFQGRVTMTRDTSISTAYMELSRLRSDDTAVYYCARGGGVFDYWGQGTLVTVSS
VL: QIVLTQSPATLSLSPGERATLSCRASSSISYMHWFQQKPGQSPQLLIYTTSNLASGVPARFSGSGSGTDYTLTISSLQPEDFAVYYCHQRSTYPLTFGSGTKLEIK
notes: IgG1 format
Consider B8, for which, in assay [1], the “fold tighter binding than anti-CD25 H1L1” value stood at 4.4 fold. In assay [2], the “Fold change in Kd vs. H0L0” value worked out at 1.3 fold, the Kd was found to be 0.2 nM, the koff stood at 0.00019 s⁻¹ and the kon amounted to 950000 M⁻¹ s⁻¹.

B9: anti-CD25 H1L1.6 (antibody, V domains shown)
VH: QVQLVQSGAEVKKPGASVKVSCKASGYTFTSYRMHWVRQAPGQGLEWMGYINPSTGYTEYNQKFQGRVTITADKSISTAYMELSRLRSDDTAVYYCARGGGVFDYWGQGTLVTVSS
VL: QIVLTQSPATLSLSPGERATLSCRASSSISYMHWFQQKPGQSPRLLIYTTSNLASGVPARFSGSGSGTDYTLTISSLQPEDFAVYYCHQRSTYPLTFGSGTKLEIK
notes: Single variant in the anti-CD25 H1L1 background; also called VL Q45R single variant
On to B9, for which, in assay [3], the “Fold change in Kd vs. H1L1” value amounted to 1 fold, the dissociation constant (Kd) stood at 0.32 nM, the koff amounted to 0.00057 s⁻¹ and the kon stood at 1.8e+06 M⁻¹ s⁻¹.

B10: anti-CD25 H1.22L1 (antibody, IgG1, V domains shown)
VH: QVQLVQSGAEVKKPGASVKVSCKASGYTFTSYRMHWVRQAPGQGLEWMGWINPNSGGTNYAQKFQGRVTITRDTSISTAYMELSRLRSDDTAVYYCARGGGVFDYWGQGTLVTVSS
VL: QIVLTQSPATLSLSPGERATLSCRASSSISYMHWFQQKPGQSPQLLIYTTSNLASGVPARFSGSGSGTDYTLTISSLQPEDFAVYYCHQRSTYPLTFGSGTKLEIK
notes: IgG1 format
With B10, the “fold tighter binding than anti-CD25 H1L1” value in assay [1] stood at 4.9 fold. In assay [2], the “Fold change in Kd vs. H0L0” value is 1.5 fold, the Kd came to 0.18 nM, the koff was determined as 0.00017 s⁻¹ and the kon came to 980000 M⁻¹ s⁻¹.

B11: anti-VEGF H0L0 (Fab, V domains shown)
VH: EIQLVQSGPELKQPGETVRISCKASGYTFTNYGMNWVKQAPGKGLKWMGWINTYTGEPTYAADFKRRFTFSLETSASTAYLQISNLKNDDTATYFCAKYPHYYGSSHWYFDVWGAGTTVTVSS
VL: DIQMTQTTSSLSASLGDRVIISCSASQDISNYLNWYQQKPDGTVKVLIYFTSSLHSGVPSRFSGSGSGTDYSLTISNLEPEDIATYYCQQYSTVPWTFGGGTKLEIK
notes: also called anti-VEGF H0L0 (murine Fv); murine A4.6.1 Fv
For B11, in the assay with VEGF, binding was characterised by a dissociation constant (Kd) of 1.4 nM, the koff came out at 0.00017 s⁻¹ and the kon came to 134000 M⁻¹ s⁻¹.

B12: Anti-TNFα H1.101L1.33 (Fab, V domains shown)
VH: EVQLVESGGGLVQPGGSLKLSCAASGFIFSNHWMNWVRQASGKGLEWVGEIRSKAINYATHYAESVKGRFTISRDDSKSTAYLQMNSLKTEDTAVYYCSRNYYGSTYDYWGQGTLVTVSS
VL: EIVLTQSPDFQSVTPKEKVTITCRASQFIGSSLHWYQQKPDQSPKLLIKYASESFSGVPSRFSGSGSGTDFTLTINSLEAEDAATYYCQQSHSWPFTFGSGTKLEIK
notes: Fab format
In the assay with TNFα [4], B12 came in with an equilibrium dissociation constant (Kd) of 3.9 nM, a koff of 0.000874 s⁻¹ and a kon of 223000 M⁻¹ s⁻¹. The “fold difference in affinity against the chimeric antibody anti-TNFα H0L0” value with TNFα [5] was not above 3 fold.

B13: Anti-TNFα H1L1 (Fab, V domains shown)
VH: EVQLVESGGGLVQPGGSLKLSCAASGFIFSNHWMNWVRQASGKGLEWVGEIRSKSINSATHYAESVKGRFTISRDDSKSIVYLQMNSLKTEDTAVYYCSRNYYGSTYDYWGQGTLVTVSS
VL: DILLTQSPDFQSVTPKEKVTITCRASQFVGSSIHWYQQKPDQSPKLLIKYASESMSGIPSRFSGSGSGTDFTLTINSLEAEDAATYYCQQSHSWPFTFGSGTKLEIK
notes: Fab format, purified by Ni-NTA chromatography; also called framework optimized anti-TNFα H1L1
As to B13, in the assay with TNFα [4], the affinity, expressed as Kd, was 1.9 nM; the koff stood at 0.00116 s⁻¹; the kon was found to be 605000 M⁻¹ s⁻¹.

B14: Anti-TNFα H1.45L1.33 (Fab, V domains shown)
VH: EVQLVESGGGLVQPGGSLKLSCAASGFIFSNHWMNWVRQASGKGLEWVGEIRSKAINYATHYAESVKGRFTISRDDSKSIVYLQMNSLKTEDTAVYYCSRNYYGSTYDYWGQGTLVTVSS
VL: EIVLTQSPDFQSVTPKEKVTITCRASQFIGSSLHWYQQKPDQSPKLLIKYASESFSGVPSRFSGSGSGTDFTLTINSLEAEDAATYYCQQSHSWPFTFGSGTKLEIK
notes: Fab format
In the assay with TNFα [4], B14 gave a Kd of 1.8 nM, a koff of 0.00087 s⁻¹ and a kon of 489000 M⁻¹ s⁻¹. The “fold difference in affinity against the chimeric antibody anti-TNFα H0L0” value with TNFα [5] was not above 3 fold.

B15: anti-CD25 H1.12L1.48 (antibody, IgG1, V domains shown)
VH: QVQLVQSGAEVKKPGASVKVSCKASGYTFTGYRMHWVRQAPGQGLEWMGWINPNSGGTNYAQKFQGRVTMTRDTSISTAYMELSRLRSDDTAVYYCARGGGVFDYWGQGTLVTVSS
VL: EIVLTQSPATLSLSPGERATLSCRASQSVSYMHWYQQKPGQAPRLLIYTTSNRATGIPARFSGSGSGTDFTLTISSLEPEDFAVYYCHQRSTYPLTFGSGTKLEIK
notes: IgG1 format
Consider B15, for which the “fold tighter binding than anti-CD25 H1L1” value in assay [1] turned out to be 5.9 fold. Moreover, in assay [2], the “Fold change in Kd vs. H0L0” value stood at 1.7 fold, the Kd was 0.15 nM, the koff came out at 0.00012 s⁻¹ and the kon turned out to be 800000 M⁻¹ s⁻¹.

B16: anti-CD25 H1.14L1.20 (antibody, IgG1, V domains shown)
VH: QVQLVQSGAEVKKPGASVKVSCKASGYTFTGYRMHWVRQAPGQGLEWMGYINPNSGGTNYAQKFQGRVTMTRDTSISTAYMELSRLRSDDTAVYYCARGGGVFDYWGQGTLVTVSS
VL: EIVLTQSPATLSLSPGERATLSCRASQSVSYLHWYQQKPGQAPRLLIYTTSNRATGIPARFSGSGSGTDFTLTISSLEPEDFAVYYCHQRSTYPLTFGSGTKLEIK
notes: IgG1 format
Regarding B16, the “fold tighter binding than anti-CD25 H1L1” value in assay [1] amounted to 1.8 fold. In assay [2], the “Fold change in Kd vs. H0L0” value is -1.9 fold, binding was put at a Kd of 0.49 nM, the koff is 0.00029 s⁻¹ and the kon stood at 580000 M⁻¹ s⁻¹.
